Test results reported in patent US11446371B2, “Targeting of ligand binding sites in ClfA” (THE TEXAS A&M UNIVERSITY SYSTEM, priority 2015, dated 2022).
Numbering of substitutions follows the chain as printed. Entries after “also recorded” stand apart in the source; their conditions may differ. Where a SMILES comes first, the peptide text is derived from it.

T1: ClfACC (Staphylococcus aureus, UniProt Q53653, D327C/K541C)
T1 construct: made in house; host or cells: E. coli Topp3
T1 sequence (Q53653 229-545 D327C/K541C limits assumed): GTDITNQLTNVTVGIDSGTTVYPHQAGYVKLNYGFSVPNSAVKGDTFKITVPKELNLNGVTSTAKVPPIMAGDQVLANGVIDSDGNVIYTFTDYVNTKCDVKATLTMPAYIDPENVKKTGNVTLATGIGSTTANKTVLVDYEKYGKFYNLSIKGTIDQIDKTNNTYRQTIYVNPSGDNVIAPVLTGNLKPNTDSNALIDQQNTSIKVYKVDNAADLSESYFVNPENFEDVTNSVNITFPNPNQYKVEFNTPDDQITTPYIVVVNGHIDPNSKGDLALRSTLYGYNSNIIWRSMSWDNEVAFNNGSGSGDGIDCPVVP

T2: immobilized human Fg (Homo sapiens, UniProt P02671+P02675+P02679)
T2 construct: immobilized intact Fg
T2 sequence (P02671 20-644 isoform P02671-2 limits assumed): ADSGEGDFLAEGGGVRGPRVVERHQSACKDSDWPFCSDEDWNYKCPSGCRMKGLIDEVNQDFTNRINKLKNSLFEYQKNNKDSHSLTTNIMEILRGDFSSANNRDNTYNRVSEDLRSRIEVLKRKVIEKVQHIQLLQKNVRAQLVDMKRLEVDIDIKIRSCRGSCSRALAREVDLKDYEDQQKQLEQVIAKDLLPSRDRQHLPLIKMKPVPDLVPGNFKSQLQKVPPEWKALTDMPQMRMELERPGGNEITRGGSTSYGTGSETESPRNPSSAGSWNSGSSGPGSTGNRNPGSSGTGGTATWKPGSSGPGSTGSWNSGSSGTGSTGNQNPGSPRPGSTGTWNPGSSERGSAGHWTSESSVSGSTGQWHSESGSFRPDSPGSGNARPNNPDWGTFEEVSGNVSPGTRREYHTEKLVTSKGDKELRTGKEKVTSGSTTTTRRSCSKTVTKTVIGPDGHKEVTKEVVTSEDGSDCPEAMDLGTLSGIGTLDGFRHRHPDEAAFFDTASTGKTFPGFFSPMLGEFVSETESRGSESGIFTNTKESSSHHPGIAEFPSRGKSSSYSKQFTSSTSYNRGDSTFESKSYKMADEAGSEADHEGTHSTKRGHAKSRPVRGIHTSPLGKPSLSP
T2 sequence (P02675 31-491): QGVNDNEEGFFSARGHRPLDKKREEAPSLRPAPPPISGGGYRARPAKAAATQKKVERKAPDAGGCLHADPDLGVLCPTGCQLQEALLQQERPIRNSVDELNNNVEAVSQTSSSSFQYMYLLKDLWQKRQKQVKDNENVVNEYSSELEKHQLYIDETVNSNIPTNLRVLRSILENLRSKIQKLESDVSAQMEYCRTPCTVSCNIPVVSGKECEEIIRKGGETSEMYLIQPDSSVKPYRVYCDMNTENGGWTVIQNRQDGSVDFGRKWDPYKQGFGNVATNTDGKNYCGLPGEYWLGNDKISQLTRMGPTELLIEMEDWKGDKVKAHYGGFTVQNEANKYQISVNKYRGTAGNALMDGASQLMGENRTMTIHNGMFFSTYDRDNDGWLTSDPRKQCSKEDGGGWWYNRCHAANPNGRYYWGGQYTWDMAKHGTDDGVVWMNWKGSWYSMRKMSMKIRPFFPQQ
T2 sequence (P02679 27-437 isoform P02679-2 limits assumed): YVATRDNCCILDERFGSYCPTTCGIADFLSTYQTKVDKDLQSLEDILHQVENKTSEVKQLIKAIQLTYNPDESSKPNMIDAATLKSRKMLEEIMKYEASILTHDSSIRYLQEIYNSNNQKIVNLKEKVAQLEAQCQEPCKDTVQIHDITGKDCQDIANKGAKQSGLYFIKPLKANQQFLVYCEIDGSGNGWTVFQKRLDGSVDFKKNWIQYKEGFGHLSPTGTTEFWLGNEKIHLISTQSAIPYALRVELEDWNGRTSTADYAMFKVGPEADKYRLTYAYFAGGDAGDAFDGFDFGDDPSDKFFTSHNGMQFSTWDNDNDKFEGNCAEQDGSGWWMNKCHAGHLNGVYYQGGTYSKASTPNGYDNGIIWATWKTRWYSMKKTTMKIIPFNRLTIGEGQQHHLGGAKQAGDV

B1: ClfAPWY (protein)
chain: VAADAPAAGTDITNQLTNVTVGIDSGTTVYPHQAGYVKLNYGFSVPNSAVKGDTFKITVPKELNLNGVTSTAKVPPIMAGDQVLANGVIDSDGNVIYTFTDYVNTKDDVKATLTMPAYIDPENVKKTGNVTLATGIGSTTANKTVLVDYEKYGKFYNLSIKGTIDQIDKTNNTYRQTIYVNPSGDNVIAPVLTGNLKPNTDSNALIDQQNTSIKVYKVDNAADLSESYFVNPENFEDVTNSVNITFANPNQYKVEFNTPDDQITTPYIVVVNGHIDPNSKGDLALRSTLYGANSNIIARSMSWDNEVAFNNGSGSGDGIDKPVVPEQPDEPGEIEPIPE
B2: ClfA221-559: recombinant ClfA residues 221-559 (N2N3 subdomains) from S. aureus strain Newman (protein)
chain: B1 chain with A247P, A292Y, A298W
B3: ClfA370-559: recombinant form of the ClfA N3 subdomain (protein)
chain: EKYGKFYNLSIKGTIDQIDKTNNTYRQTIYVNPSGDNVIAPVLTGNLKPNTDSNALIDQQNTSIKVYKVDNAADLSESYFVNPENFEDVTNSVNITFPNPNQYKVEFNTPDDQITTPYIVVVNGHIDPNSKGDLALRSTLYGYNSNIIWRSMSWDNEVAFNNGSGSGDGIDKPVVPEQPDEPGEIEPIPE

Key:
Fg binding to ClfA = Fg binding to ClfA (Staphylococcus aureus, UniProt Q53653); assay: Reduction of Fg binding to ClfA by synthetic Fg γ-peptide; parameters: species or system S. aureus; conditions: even at high concentrations
ClfACC = biological target: T1, ClfACC; assay: ITC, synthetic C-terminal γ-chain peptide titrated into ClfACC; type: binding, S. aureus; conditions: peptide titrated into cell containing ClfACC
immobilized Tefibazumab = assay: SPR binding of ClfA221-559 variants to immobilized Tefibazumab; conditions: 0.1 μM ClfA221-559 variant
Excerpt: Surface Plasmon Resonance.
FIG. 3A is a ribbon diagram of ClfA-N3 domain showing the positions of PWY. The Fg γ-peptide is shown as a ribbon to show the location of the Fg γ-peptide binding site. […] The amino acid substitutions in the variant proteins were made at the mAb binding site. FIG. 3C is a graph of ClfAPWY and Fg-γ P16 peptide interaction measured by ITC.

immobilized human Fg [1] = biological target: T2, immobilized human Fg; assay: SPR binding of ClfA proteins to immobilized Fg; conditions: 0.1 μM ClfA221-559 variant
Description: (§1) Surface Plasmon Resonance. Surface plasmon resonance-based binding experiments were performed at 25° C. on a Biacore 3000 (GE Healthcare/Biacore, Uppsala, Sweden). Phosphate buffered saline (PBS-T: 8.06 mM Na2HPO4, 1.94 mM KH2PO4, 2.7 mM KCl and 137 mM NaCl, pH 7.4, and 0.005% Tween-20) was used as running buffer for immobilization and binding experiments. Flow rate of 5 μl/min was used during immobilization and a higher rate 30 or 50 μl/min for binding experiments. The fibrinogen (Fg) surface was prepared on a CM5 sensor chip via standard amine-coupling chemistry. A Fg solution (10 μl of 20 μg/ml in sodium citrate, pH5.5) was injected to an activated (4 min) flow cell. After deactivation, about 7000 resonance units (RU) of Fg were immobilized. A reference surface was prepared with activation and deactivation steps but no protein coupled. […] For GST fusion protein capturing, approximately 11000 RU of goat anti-GST antibody (GE Healthcare/Biacore) were immobilized simultaneously on two flow cells on a CM5 sensor chip. GST-tagged Fg γ-peptide (20 μg/ml in PBS-T) was captured by the antibody and created a ligand surface (about 700 RU). The other flow cell with GST captured (about 900 RU) served as a reference surface. […] All SPR responses were baseline corrected by subtracting response generated from reference surface.
(§2) Since most of the known and putative Fg interactive sites in ClfA are located within the N3 subdomain we examined the interactions of a recombinant form of N3 (ClfA370-559) to the different forms of immobilized Fg.

immobilized human Fg [2] = assay: SPR binding of ClfA proteins to immobilized Fg; conditions: immobilized Fg, Fg D-fragment, GST-γ-peptide
Description: as §1, §2

Molecule | binding to immobilized Tefibazumab (immobilized Tefibazumab) | binding to immobilized human Fg (immobilized human Fg [1]) | fold difference in KD between binding to γ-peptide and to Fg or Fg D-fragment (immobilized human Fg [2]) | other results
CC(C)C[C@H](NC(=O)[C@H](Cc1c[nH]cn1)NC(=O)[C@H](Cc1c[nH]cn1)NC(=O)[C@H](CCC(N)=O)NC(=O)[C@H](CCC(N)=O)NC(=O)CNC(=O)[C@H](CCC(=O)O)NC(=O)CN)C(=O)NCC(=O)NCC(=O)N[C@@H](C)C(=O)N[C@@H](CCCCN)C(=O)N[C@@H](CCC(N)=O)C(=O)N[C@@H](C)C(=O)NCC(=O)N[C@@H](CC(=O)O)C(=O)N[C@H](C(=O)O)C(C)C [Fg γ-peptide] (H-GEGQQHHLGGAKQAGDV-OH; N-terminus and C-terminus assumed) | – | – | – | maximum reduction of Fg binding to ClfA (Fg binding to ClfA): ~50%; Kd (ClfACC): 9 µM
Y512A | slightly reduced binding | reduced binding | – | –
B1 | almost completely abolished; also recorded: completely lost its ability to bind | minimal binding | – | –
B2 | – | – | 4-7 fold | –
B3 | – | – | about 10 fold | –
